No end group written: not given here. *: point of attachment. MTX = methotrexate, its gamma-carboxylic acid amide-linked to the peptide N-terminus, CN(Cc1cnc2nc(N)nc(N)c2n1)c1ccc(C(=O)N[C@@H](CCC(=O)*)C(=O)O)cc1

The source of these data is patent US20040037775A1 (published 2004).

Assay in all cases: cell-based or functional assay
The target in experiment [1] is LFA-1 receptor on human Molt-3 T-cells (human, UniProt P20701 26-1170; P05107 23-769).
The target in experiment [2] is LFA-1 on mouse L1210 T-cells (mouse, UniProt P24063 24-1162; P11835 24-771).
Experiment [3] concerns the target dihydrofolate reductase enzyme (DHFR).

Chain of LFA-1 on mouse L1210 T-cells (P24063 24-1162, chain 1 of 2): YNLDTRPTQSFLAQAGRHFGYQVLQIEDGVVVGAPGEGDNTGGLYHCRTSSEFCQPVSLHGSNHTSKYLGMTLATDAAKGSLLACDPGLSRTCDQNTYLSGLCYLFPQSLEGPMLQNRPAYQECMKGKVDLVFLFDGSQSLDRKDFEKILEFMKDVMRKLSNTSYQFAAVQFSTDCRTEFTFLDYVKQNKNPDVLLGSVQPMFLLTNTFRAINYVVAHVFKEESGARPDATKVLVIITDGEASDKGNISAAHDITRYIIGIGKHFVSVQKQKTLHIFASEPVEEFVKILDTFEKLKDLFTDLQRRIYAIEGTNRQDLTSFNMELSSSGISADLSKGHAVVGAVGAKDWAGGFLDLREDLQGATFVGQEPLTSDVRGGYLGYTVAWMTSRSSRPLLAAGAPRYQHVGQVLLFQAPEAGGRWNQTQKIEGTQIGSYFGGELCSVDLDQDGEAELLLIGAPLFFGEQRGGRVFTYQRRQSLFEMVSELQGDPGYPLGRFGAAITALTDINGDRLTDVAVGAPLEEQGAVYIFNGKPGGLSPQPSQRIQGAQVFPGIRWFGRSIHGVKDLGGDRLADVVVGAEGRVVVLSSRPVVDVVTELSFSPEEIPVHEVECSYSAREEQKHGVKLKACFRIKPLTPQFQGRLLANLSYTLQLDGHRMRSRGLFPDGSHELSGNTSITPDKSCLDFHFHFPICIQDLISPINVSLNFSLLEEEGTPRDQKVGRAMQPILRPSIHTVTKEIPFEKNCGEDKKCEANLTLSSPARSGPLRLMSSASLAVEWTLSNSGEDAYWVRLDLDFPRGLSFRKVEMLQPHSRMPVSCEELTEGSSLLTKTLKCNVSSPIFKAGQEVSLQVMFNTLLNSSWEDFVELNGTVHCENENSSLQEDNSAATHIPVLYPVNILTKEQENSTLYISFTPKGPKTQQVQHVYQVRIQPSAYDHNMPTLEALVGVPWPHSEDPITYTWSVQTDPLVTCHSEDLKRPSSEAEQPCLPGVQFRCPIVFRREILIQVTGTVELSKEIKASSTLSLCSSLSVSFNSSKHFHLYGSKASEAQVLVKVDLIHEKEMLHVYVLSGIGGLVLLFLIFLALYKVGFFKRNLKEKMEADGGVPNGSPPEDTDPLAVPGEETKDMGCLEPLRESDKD
Chain of LFA-1 on mouse L1210 T-cells (P11835 24-771, chain 2 of 2): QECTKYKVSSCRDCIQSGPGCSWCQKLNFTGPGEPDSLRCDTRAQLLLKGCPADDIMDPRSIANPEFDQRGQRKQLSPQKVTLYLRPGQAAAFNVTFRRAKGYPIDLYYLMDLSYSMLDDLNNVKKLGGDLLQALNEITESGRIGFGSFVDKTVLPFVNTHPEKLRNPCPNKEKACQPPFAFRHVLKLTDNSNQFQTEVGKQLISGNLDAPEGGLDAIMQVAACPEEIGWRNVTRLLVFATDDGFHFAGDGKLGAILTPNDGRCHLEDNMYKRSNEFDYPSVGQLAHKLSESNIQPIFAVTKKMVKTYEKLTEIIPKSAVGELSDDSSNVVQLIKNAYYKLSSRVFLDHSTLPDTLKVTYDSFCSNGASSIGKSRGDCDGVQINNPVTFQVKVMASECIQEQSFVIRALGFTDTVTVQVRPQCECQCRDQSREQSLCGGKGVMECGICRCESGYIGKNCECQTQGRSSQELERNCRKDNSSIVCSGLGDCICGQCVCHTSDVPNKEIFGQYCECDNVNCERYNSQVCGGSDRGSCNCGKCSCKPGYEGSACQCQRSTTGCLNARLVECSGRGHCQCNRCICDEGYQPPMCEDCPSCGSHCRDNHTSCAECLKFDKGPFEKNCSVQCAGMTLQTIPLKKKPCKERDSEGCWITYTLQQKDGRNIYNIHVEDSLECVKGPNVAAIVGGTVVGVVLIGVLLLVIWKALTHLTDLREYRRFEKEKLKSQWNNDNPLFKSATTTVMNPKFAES
Chain of LFA-1 receptor on human Molt-3 T-cells (P20701 26-1170, chain 1 of 2): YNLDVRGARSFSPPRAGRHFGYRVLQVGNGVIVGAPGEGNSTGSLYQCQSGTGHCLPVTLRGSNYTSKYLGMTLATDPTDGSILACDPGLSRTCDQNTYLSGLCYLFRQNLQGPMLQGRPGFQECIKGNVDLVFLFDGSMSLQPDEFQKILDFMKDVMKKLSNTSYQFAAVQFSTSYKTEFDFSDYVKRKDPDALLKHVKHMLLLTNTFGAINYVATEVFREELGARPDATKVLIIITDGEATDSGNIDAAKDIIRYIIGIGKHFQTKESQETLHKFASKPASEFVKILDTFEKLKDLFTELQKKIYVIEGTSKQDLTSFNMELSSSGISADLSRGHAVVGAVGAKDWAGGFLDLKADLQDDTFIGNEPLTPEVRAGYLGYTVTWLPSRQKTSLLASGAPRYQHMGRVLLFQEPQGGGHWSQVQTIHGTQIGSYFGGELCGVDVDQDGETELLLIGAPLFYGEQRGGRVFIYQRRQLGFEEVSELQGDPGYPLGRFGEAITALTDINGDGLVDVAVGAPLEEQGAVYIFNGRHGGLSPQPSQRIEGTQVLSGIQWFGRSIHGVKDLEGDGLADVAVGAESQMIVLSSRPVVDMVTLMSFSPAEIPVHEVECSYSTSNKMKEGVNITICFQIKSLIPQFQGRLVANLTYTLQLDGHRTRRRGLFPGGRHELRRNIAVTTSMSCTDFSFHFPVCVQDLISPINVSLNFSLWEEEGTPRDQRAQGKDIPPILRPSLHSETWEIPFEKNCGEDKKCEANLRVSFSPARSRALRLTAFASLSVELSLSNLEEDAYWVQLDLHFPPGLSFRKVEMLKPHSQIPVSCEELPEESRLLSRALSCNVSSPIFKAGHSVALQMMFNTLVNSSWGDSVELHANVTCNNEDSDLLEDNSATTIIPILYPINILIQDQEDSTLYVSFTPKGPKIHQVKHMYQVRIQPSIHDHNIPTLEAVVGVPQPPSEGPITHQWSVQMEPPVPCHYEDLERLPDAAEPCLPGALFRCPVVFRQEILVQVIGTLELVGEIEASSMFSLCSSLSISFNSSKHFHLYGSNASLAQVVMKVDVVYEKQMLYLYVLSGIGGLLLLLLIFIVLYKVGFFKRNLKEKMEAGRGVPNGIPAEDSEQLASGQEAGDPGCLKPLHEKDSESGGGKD
Chain of LFA-1 receptor on human Molt-3 T-cells (P05107 23-769, chain 2 of 2): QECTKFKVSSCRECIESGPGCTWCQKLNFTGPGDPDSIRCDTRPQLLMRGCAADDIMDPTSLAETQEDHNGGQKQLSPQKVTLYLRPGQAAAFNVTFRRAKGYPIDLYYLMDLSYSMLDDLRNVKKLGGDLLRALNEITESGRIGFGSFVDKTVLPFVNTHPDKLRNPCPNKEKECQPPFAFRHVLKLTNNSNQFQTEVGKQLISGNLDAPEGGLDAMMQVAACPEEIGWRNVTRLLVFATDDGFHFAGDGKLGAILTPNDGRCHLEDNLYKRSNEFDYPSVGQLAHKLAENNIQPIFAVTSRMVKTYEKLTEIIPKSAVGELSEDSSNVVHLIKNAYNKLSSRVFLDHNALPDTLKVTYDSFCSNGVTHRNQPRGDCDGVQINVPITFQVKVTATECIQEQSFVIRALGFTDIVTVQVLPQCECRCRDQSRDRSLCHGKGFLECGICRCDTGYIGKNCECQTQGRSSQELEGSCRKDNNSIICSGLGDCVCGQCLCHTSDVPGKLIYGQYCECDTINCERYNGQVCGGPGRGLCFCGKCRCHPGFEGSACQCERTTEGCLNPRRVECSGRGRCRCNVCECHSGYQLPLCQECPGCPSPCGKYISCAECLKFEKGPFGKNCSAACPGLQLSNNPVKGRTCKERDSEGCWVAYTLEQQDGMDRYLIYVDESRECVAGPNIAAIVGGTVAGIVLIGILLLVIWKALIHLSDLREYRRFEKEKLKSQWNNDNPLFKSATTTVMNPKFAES

As for {MTX}-VILPRG-NH2 [MTX-VILPRG], in experiment [1], the “IC50 in micromolar, cytotoxicity, Molt-3 T-cells” value (“IC50 in micromolar, cytotoxicity” for short) was 9.12 µM. Besides, in experiment [2], the “IC50 in micromolar, growth inhibition, L1210 mouse leukemia cells” value (“IC50 in micromolar, growth inhibition” for short) amounted to 0.7 µM.
With {MTX}-QTSVSPSKVI (also: cyclic peptide, ring not given here) [MTX-cIBL conjugate], the “IC50 in micromolar, cytotoxicity” value in experiment [1] stood at 2.68 µM. Besides, in experiment [2], the “IC50 in micromolar, growth inhibition” value amounted to 9.14 µM. Further, the “Km relative to MTX (Dixon plot, DHFR inhibition assay)” value in experiment [3] is roughly 4 fold.
Taken in the same sequence, the figures for {MTX}-LPRGGSVLVT (also: cyclic peptide, ring closure not given here) [MTX-cIBR conjugate (methotrexate-cyclo-Leu Pro Arg Gly Gly Ser Val Leu Val Thr)] were 2.75 µM, 5.5 µM and roughly 15 fold.
Consider {MTX}-PRGGSV-NH2 [MTX-PRGGSV], for which, in experiment [1], the “IC50 in micromolar, cytotoxicity” value was 5.13 µM. Further, the “IC50 in micromolar, growth inhibition” value in experiment [2] turned out to be 1.6 µM.
